According to the supplement of paper PMC9732359:
± gives the uncertainty stated by the source.

Test: protein stability index of a GFP-peptide fusion (yeast GPS) (PSI 1-4); higher = more stable; sorted into four equal gates, so the index is relative within each strain
Outline: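 Sequencing reads from sorted gates were used to score each peptide. The library consisted of tiled 17-residue yeast protein peptides fused downstream of GFP on a Cherry-expressing plasmid, pooled and carried in yeast. Mid-log cultures in leucine-free medium were split into four equal gates by GFP/Cherry ratio, and each gate's plasmids were PCR-amplified and Illumina-sequenced. The protein stability index adds up, over all gates, the read frequency multiplied by the gate number.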

Row | Sequence | protein stability index (doa10∆) | protein stability index (pdr5∆) | protein stability index (san1∆) | protein stability index (ubr1∆)
1 | AHTAGRYANKRFRKAQC [RPS5] | 2.29 ± 0.22 | 2.92 ± 0.18 |  | 
2 | AIATTVIAHLTVEALDF [RET1] | 2.54 ± 0.12 | 2.32 ± 0.083 | 2.71 ± 0.076 | 2.37 ± 0.053
3 | AIEPETFTQLVSSSLYE [PUP3] | 2.35 ± 0.063 | 2.89 ± 0.068 | 2.75 ± 0.063 | 2.54 ± 0.043
4 | AIFNNEFDSDDDDISDD [RPN4] | 3.12 ± 0.1 | 2.16 ± 0.19 |  | 3.19 ± 0.21
5 | AIIDKNTGLTFKKNLQV [PRE4] | 3.22 ± 0.081 | 2.79 ± 0.076 | 2.79 ± 0.11 | 3.35 ± 0.082
6 | AIKWDGSSGGVIRMVVL [PRE3] | 2.56 ± 0.084 | 1.92 ± 0.071 | 2.71 ± 0.1 | 1.75 ± 0.049
7 | AIKYGYEDSGSTYKHDR [SRB4] | 3.22 ± 0.17 |  | 3.43 ± 0.14 | 3.15 ± 0.14
8 | AIKYRPTSVKLLKTTVP [POP3] | 2.23 ± 0.037 | 2.3 ± 0.039 | 2.31 ± 0.057 | 2.14 ± 0.033
9 | AIVCYILFELYKIKGRN [SRP72] | 2.01 ± 0.056 | 2.13 ± 0.059 | 2.69 ± 0.059 | 2.15 ± 0.054
10 | AKAKAVTSKVRNAEFKV [YMR153W/NUP53] | 1.38 ± 0.15 | 1.67 ± 0.13 |  | 1.3 ± 0.13
11 | AKLPGHKSLIRSISWAP [YGL100W/SEH1] | 2.74 ± 0.07 | 2.3 ± 0.058 | 2.2 ± 0.11 | 2.54 ± 0.055
12 | AKMNAKTDFAKIINKPN [RPC82] | 1.8 ± 0.069 | 1.79 ± 0.092 | 1.58 ± 0.17 | 1.62 ± 0.069
13 | AKNSIIDSSNLPLQAQQ [SWI1] | 2.73 ± 0.069 | 2.94 ± 0.071 | 2.74 ± 0.099 | 2.78 ± 0.042
14 | AKRLIHGTSTSAEDEEN [CDC53] | 2.84 ± 0.14 | 2.44 ± 0.26 |  | 3.57 ± 0.19
15 | AKSLLKLQLGQLYESGN [COR1] | 2.97 ± 0.12 | 3.27 ± 0.13 | 2.99 ± 0.1 | 3.01 ± 0.087
16 | AKVVVTTSRFSKQVTDY [FAS2] | 3.08 ± 0.084 | 2.71 ± 0.082 | 3.12 ± 0.055 | 3.15 ± 0.058
17 | AKYETSILEHSGIRLIE [FAS2] | 3.32 ± 0.062 | 3.3 ± 0.063 | 3.09 ± 0.051 | 3.37 ± 0.052
18 | ALAGGKKSKKKWSKKSM [RPS25A] | 3.45 ± 0.12 | 3.42 ± 0.17 | 3.23 ± 0.16 | 3.63 ± 0.09
19 | ALAGSEINWRHASFLCS [FAS1] | 1.77 ± 0.071 | 1.6 ± 0.057 | 1.43 ± 0.092 | 1.84 ± 0.049
20 | ALAYAGTGNNSAVKRLL [RPN2] | 2.68 ± 0.1 | 2.71 ± 0.1 | 2.28 ± 0.14 | 3.26 ± 0.1
21 | ALEEGLNEEAVIFLSSL [YJL039C/NUP192] | 3.28 ± 0.1 | 3.05 ± 0.062 | 3 ± 0.07 | 2.99 ± 0.065
22 | ALETENMEIRNLRLKIL [GRR1] | 3.14 ± 0.065 | 2.9 ± 0.043 | 2.82 ± 0.052 | 2.7 ± 0.03
23 | ALGIKVTNPKGRLALEA [RPL32] |  | 3.37 ± 0.18 | 2.87 ± 0.23 | 3.36 ± 0.19
24 | ALIENKKAKLVLIANDV [RPL8A] | 2.76 ± 0.1 | 2.51 ± 0.093 | 2.56 ± 0.12 | 2.46 ± 0.12
25 | ALKRSYGIFGEGVEYSF [POP8] | 2.45 ± 0.092 | 2.71 ± 0.052 | 2.46 ± 0.097 | 2.86 ± 0.051
26 | ALKTSIQHVGMINGRKL [FAS1] | 3.21 ± 0.12 | 3.21 ± 0.1 | 3.25 ± 0.067 | 3.19 ± 0.083
27 | ALLQRLKTNGKQNNKDF [MTW1] | 2.97 ± 0.1 | 3.33 ± 0.14 | 3.04 ± 0.13 | 2.28 ± 0.091

Row | Sequence | protein stability index (doa10∆) | protein stability index (pdr5∆) | protein stability index (san1∆) | protein stability index (ubr1∆)
28 | ALMKEKDIRSTLASLIR [RPC82] | 3.2 ± 0.27 | 2.85 ± 0.21 | 2.43 ± 0.24 | 3.13 ± 0.12
29 | ALQDKEITSVLSNLHES [SNF12] | 2.93 ± 0.083 | 3.43 ± 0.13 | 2.94 ± 0.064 | 3.13 ± 0.056
30 | ALQQQQQQQQNQQQQNQ [SWI1] | 2.77 ± 0.062 | 2.97 ± 0.068 | 2.75 ± 0.047 | 2.78 ± 0.079
31 | ALRPSDIFGANAASGSN [YOR098C/NUP1] | 2.67 ± 0.057 | 1.99 ± 0.044 | 2.22 ± 0.062 | 2.52 ± 0.059
32 | ALSKFLTHPKYLNSRII [YML103C/NUP188] | 1.16 ± 0.057 | 1.32 ± 0.077 | 1.38 ± 0.093 | 1.58 ± 0.066
33 | ALSMGKSSAFVIDIGAS [ARP7] | 1.47 ± 0.043 | 1.95 ± 0.069 | 1.62 ± 0.092 | 2.1 ± 0.059
34 | ALVKPETQFKLSRPYKA [CDC53] | 2.41 ± 0.068 | 2.64 ± 0.059 | 2.59 ± 0.059 | 2.34 ± 0.063
35 | AMDLAQMLIQGVWDVDN [BRR2] | 2.85 ± 0.064 | 2.78 ± 0.067 | 2.18 ± 0.058 | 2.12 ± 0.052
36 | AMDRAHRIGQKKQVHVY [ISW2] | 2.71 ± 0.095 | 2.75 ± 0.078 | 2.84 ± 0.085 | 2.66 ± 0.074
37 | AMEKYLLSKSKIGEEDY [MTW1] | 2.35 ± 0.085 | 2.73 ± 0.083 | 2.6 ± 0.1 | 2.73 ± 0.042
38 | AMFAALQQKQQQRFQAL [SWI1] | 1.36 ± 0.051 | 1.62 ± 0.053 | 1.3 ± 0.12 | 1.62 ± 0.038
39 | AMLAAQDVAAKCKEVGI [RPS14B] | 2.36 ± 0.061 | 2.36 ± 0.065 | 1.99 ± 0.073 | 1.96 ± 0.044
40 | AMNDACYEKVLESINEG [BRR2] | 3.15 ± 0.12 | 2.82 ± 0.17 | 2.91 ± 0.095 | 3.37 ± 0.2
41 | ANARDFGEWAGMTKSNI [BRR2] | 2.28 ± 0.12 | 2.82 ± 0.14 | 1.55 ± 0.12 | 2.37 ± 0.079
42 | ANGTFMDFGVDPSMDPE [RPN10] | 2.87 ± 0.12 | 3.05 ± 0.091 | 2.65 ± 0.12 | 2.87 ± 0.085
43 | ANIQLDFPELKPYKQVK [FAS2] | 3.16 ± 0.1 | 2.85 ± 0.094 | 2.97 ± 0.11 | 3.17 ± 0.077
44 | ANKEKKKAEKAARKAEK [RPL24A] | 3.27 ± 0.059 | 3.33 ± 0.065 | 3.38 ± 0.036 | 3.48 ± 0.055
45 | ANKLSKSHSTVSSSSRH [ISW2] | 2.9 ± 0.066 | 2.63 ± 0.069 | 2.71 ± 0.056 | 2.93 ± 0.037
46 | ANLVNKESDLLEETRTT [BRN1] | 3.06 ± 0.18 | 3.51 ± 0.17 | 3.31 ± 0.098 | 3.26 ± 0.077
47 | ANNASQITPTVPHSHPS [SNF12] | 2.77 ± 0.053 | 3 ± 0.064 | 2.82 ± 0.052 | 2.9 ± 0.052
48 | ANPVVATDPVAAKPDNL [SWP82] | 3.26 ± 0.087 | 3.15 ± 0.097 | 3.23 ± 0.085 | 3.1 ± 0.05
49 | ANTPSIPTNPVDNENNK [SWI3] | 2.62 ± 0.08 | 2.8 ± 0.068 | 2.68 ± 0.053 | 3.08 ± 0.071
50 | ANTPVLRKSELEYYAML [RPL30] | 2.57 ± 0.096 | 2.99 ± 0.093 | 2.23 ± 0.095 | 2.81 ± 0.076
51 | ANVQRLKEYQSKIIVFP [RPL13A] | 2.93 ± 0.076 | 3.03 ± 0.093 | 3.05 ± 0.092 | 3 ± 0.067
52 | APAYAWSHNGPFETFDH [CYT1] | 2.19 ± 0.098 | 2.64 ± 0.099 | 1.75 ± 0.16 | 2.78 ± 0.1
53 | APDSEYLCFILSTRAGG [SNF2] | 1.97 ± 0.055 | 1.97 ± 0.058 | 2.01 ± 0.063 | 1.93 ± 0.041
